According to US20040009486A1, “Compositions and methods utilizing DNA polymerases” (priority 1999, published 2004):

Experiments:
[1] = tested on: primer:template; test: Fidelity screen with rhodamine labeled non-complementary ddNTP; type: biochemical; conditions: R110-labeled incorrect ddNTP
Description: Reactions (10 μl) contained 1 unit of enzyme in 1× reaction buffer, 15 nM primer template, 25 nM of unlabeled complementary ddNTP, and 25, 100, 500, or 1000 nM of rhodamine labeled non-complementary ddNTP in four separate reactions. The reactions were incubated in a Perkin-Elmer 9600 for 25 cycles as follows: 96° C. for 10 s, 50° C. for 5 s, and 60° C. for 30 s. The reactions were then quenched with ice-cold 0.2 M EDTA (final concentration) and the products were purified from unincorporated rhodamine labeled ddNTPs and analyzed as described above.
Fidelity was determined as the tendency of a DNA polymerase to incorporate the correct nucleotide in the presence of increasing amounts of a non-complementary nucleotide. These assays employed constant amounts of primer:template, an unlabeled complementary ddNTP and DNA polymerase, and various concentrations of a rhodamine-labeled non-complementary ddNTP, as described in the Experimental Protocol. The amount of misextended primers is plotted against the ratio of rhodamine-labeled incorrect ddNTP/unlabeled correct ddNTP (FIG. 18 panels A and B). We performed similar assays for all possible mispairs (Table IX).
To address these concerns, the insertion fidelity of the JDF-3 P410L/A485T and Taq F667Y mutants was compared. In the first set of fidelity assays, a constant amount of primer:template, an unlabeled complementary ddNTP, and increasing concentrations of R110-labeled non-complementary ddNTP was used (Materials and Methods). […] The amount of misextended primers was determined and plotted against the ratio of R110-labeled incorrect ddNTP/unlabeled correct ddNTP (FIG. 27, panels A and B). Similar assays for all 12 possible mispairs was performed (ddG:dT, ddT:dG, ddT:dC, ddC:dT, ddC:dA, ddA:dC, ddA:dG, ddG:dA, ddT:dT, ddC:dC, ddA:dA, ddG:dG). […] The other mispairs are formed less frequently, and at similar rates for the JDF-3 P410L/A485T and Taq F667Y mutants (data not shown).
Fidelity assays using labeled ddNTPs (10 μl) contained 1 unit DNA polymerase in 1× reaction buffer, 15 nM primer: template, 25 nM of unlabeled complementary ddNTP, and 25, 100, 500, or 1000 nM of rhodamine-labeled non-complementary ddNTP in four separate reactions. The reactions were incubated in a Perkin-Elmer 9600 for 25 cycles as follows: 96° C. for 10 s, 50° C. for 5 s, and 60° C. for 30 s. The reactions were quenched and analyzed as above.

[2] = cited from earlier work
[3] = Gardner and Jack, 1999; cited from earlier work
[4] = Reha-Krantz et al., 1993; cited from earlier work
[5] = tested on: DNA; test: Polymerase constant for DNA (Table IV); type: biochemical; conditions: head names no parameter
Description: (§1) Recombinant JDF-3 DNA polymerase was purified as described below (see “Purification of JDF-3” (method 1)). The biochemical properties of JDF-3 DNA polymerase have been compared to those of other commercially available archaeal DNA polymerases. […] JDF-3 DNA polymerase was therefore chosen for development of a DNA sequencing enzyme.

[6] = Polymerase constant for dNTP (Table IV); type: biochemical; conditions: head names no parameter
Description: as §1

[7] = tested on: Primed M13; test: Polymerase specific activity on primed M13 (Table IV); type: biochemical
Description: as §1

[8] = 3′ to 5′ exonuclease activity, Kong et al. method, bacterial lysates; type: biochemical
Description: To analyze JDF-3 mutant proteins, the DNA sequence encoding JDF-3 DNA polymerase was PCR amplified using primers GGGAAACATATGATCCTTGACGTTGATTAC (where NdeI site in bold and start codon underlined) and GGGAAAGGATCCTCACTTCTTCTTCCCCTTC (where BamHI site shown in bold type). The PCR products were digested, purified, and ligated into a high expression level vector using standard methods. Plasmid clones were transformed into BL21(DE3). Recombinant bacterial clones were grown using standard procedures and JDF-3 polymerase mutants were expressed in the absence of induction. The exonuclease and polymerase activities of recombinant clones were assayed using bacterial lysates. Typically, crude extracts were heated at 70° C. for 15-30 minutes and then centrifuged to obtain a cleared lysate.
There are several methods of measuring 3′ to 5′ exonuclease activity known in the art, including that of Kong et al. (Kong et al., 1993, J. Biol. Chem. 268: 1965) and that of Southworth et al. (Southworth et al., 1996, Proc. Natl. Acad. Sci. U.S.A. 93: 5281), the full contents of both of which are hereby incorporated by reference. The exonuclease activity of wild type and active mutant polymerases as measured by the Kong et al. method were as follows: […]

[9] = tested on: Activated DNA; test: Polymerase specific activity on activated DNA (Table IV); type: biochemical
Description: as §1
DNA polymerase activity was measured using purified JDF-3 polymerase mutants or heat-treated bacterial extracts prepared from various mutant clones. DNA polymerase activity was measured by monitoring the incorporation of ^3H-TTP into activated calf thymus DNA. A typical DNA polymerase reaction cocktail contained:
Incorporation was measured by adding 1 μl of polymerase samples to 10 μl aliquots of polymerase cocktail. DNA polymerase samples were diluted in a suitable storage buffer (e.g., 25 mM Tris-HCl (pH 7.5), 100 mM KCl, 0.1 mM EDTA, 1 mM DTT, 0.1% (v/v) Tween 20, 0.1% (v/v) Igepal 630, 10 μg/ml BSA, and 50% (v/v) glycerol). Polymerization reactions were conducted for 30 minutes at 72° C. Extension reactions were quenched on ice, and then 5 μl aliquots were spotted immediately onto DE81 ion-exchange filters (2.3 cm; Whatman #3658323). Unincorporated [^3H]TTP was removed by 6 washes with 2×SCC (0.3M NaCl, 30 mM sodium citrate, pH 7.0), followed by a brief wash with 100% ethanol. Incorporated radioactivity was measured by scintillation counting. […]

## AmpliTaq FS: Taq F667Y mutant DNA polymerase (ABI / Perkin Elmer)
[1]
  ddG:dT mispair formation frequency, higher than JDF-3 P410L/A485T: 20 fold
  ddT:dC mispair formation frequency, higher than JDF-3 P410L/A485T: 3 fold

## Y412F: VENT DNA polymerase site-directed mutant Y412F (Gardner and Jack, 1999)
[2]; Gardner and Jack, 1999
  analog incorporation: no change in analog incorporation

## Y412V: VENT DNA polymerase site-directed mutant Y412V (Gardner and Jack, 1999)
[3]
  increase in incorporation of ribonucleotide ATP: 200 fold
[2]; literature values
  dideoxynucleotide incorporation relative to unmutated / wild type enzyme: 2 fold

B1: L412M: L412M bacteriophage T4 DNA polymerase mutant (Reha-Krantz et al., 1993) (protein, UniProt P04415 1-898, looked up, variant L412M)
DNA-directed DNA polymerase: MKEFYISIETVGNNIVERYIDENGKERTREVEYLPTMFRHCKEESKYKDIYGKNCAPQKFPSMKDARDWMKRMEDIGLEALGMNDFKLAYISDTYGSEIVYDRKFVRVANCDIEVTGDKFPDPMKAEYEIDAITHYDSIDDRFYVFDLLNSMYGSVSKWDAKLAAKLDCEGGDEVPQEILDRVIYMPFDNERDMLMEYINLWEQKRPAIFTGWNIEGFDVPYIMNRVKMILGERSMKRFSPIGRVKSKLIQNMYGSKEIYSIDGVSILDYLDLYKKFAFTNLPSFSLESVAQHETKKGKLPYDGPINKLRETNHQRYISYNIIDVESVQAIDKIRGFIDLVLSMSYYAKMPFSGVMSPIKTWDAIIFNSLKGEHKVIPQQGSHVKQSFPGAFVFEPKPIARRYIMSFDLTSMYPSIIRQVNISPETIRGQFKVHPIHEYIAGTAPKPSDEYSCSPNGWMYDKHQEGIIPKEIAKVFFQRKDWKKKMFAEEMNAEAIKKIIMKGAGSCSTKPEVERYVKFSDDFLNELSNYTESVLNSLIEECEKAATLANTNQLNRKILINSLYGALGNIHFRYYDLRNATAITIFGQVGIQWIARKINEYLNKVCGTNDEDFIAAGDTDSVYVCVDKVIEKVGLDRFKEQNDLVEFMNQFGKKKMEPMIDVAYRELCDYMNNREHLMHMDREAISCPPLGSKGVGGFWKAKKRYALNVYDMEDKRFAEPHLKIMGMETQQSSTPKAVQEALEESIRRILQEGEESVQEYYKNFEKEYRQLDYKVIAEVKTANDIAKYDDKGWPGFKCPFHIRGVLTYRRAVSGLGVAPILDGNKVMVLPLREGNPFGDKCIAWPSGTELPKEIRSDVLSWIDHSTLFQKSFVKPLAGMCESAGMDYEEKASLDFLFG
[4]
  ddGTP needed for inhibition, less than wild-type polymerase: 50 fold

B2: Pfu: Family B DNA polymerase from Pyrococcus furiosus (protein, UniProt P61875 1-775, looked up)
DNA polymerase: MILDVDYITEEGKPVIRLFKKENGKFKIEHDRTFRPYIYALLRDDSKIEEVKKITGERHGKIVRIVDVEKVEKKFLGKPITVWKLYLEHPQDVPTIREKVREHPAVVDIFEYDIPFAKRYLIDKGLIPMEGEEELKILAFDIETLYHEGEEFGKGPIIMISYADENEAKVITWKNIDLPYVEVVSSEREMIKRFLRIIREKDPDIIVTYNGDSFDFPYLAKRAEKLGIKLTIGRDGSEPKMQRIGDMTAVEVKGRIHFDLYHVITRTINLPTYTLEAVYEAIFGKPKEKVYADEIAKAWESGENLERVAKYSMEDAKATYELGKEFLPMEIQLSRLVGQPLWDVSRSSTGNLVEWFLLRKAYERNEVAPNKPSEEEYQRRLRESYTGGFVKEPEKGLWENIVYLDFRALYPSIIITHNVSPDTLNLEGCKNYDIAPQVGHKFCKDIPGFIPSLLGHLLEERQKIKTKMKETQDPIEKILLDYRQKAIKLLANSFYGYYGYAKARWYCKECAESVTAWGRKYIELVWKELEEKFGFKVLYIDTDGLYATIPGGESEEIKKKALEFVKYINSKLPGLLELEYEGFYKRGFFVTKKRYAVIDEEGKVITRGLEIVRRDWSEIAKETQARVLETILKHGDVEEAVRIVKEVIQKLANYEIPPEKLAIYEQITRPLHEYKAIGPHVAVAKKLAAKGVKIKPGMVIGYIVLRGDGPISNRAILAEEYDPKKHKYDAEYYIENQVLPAVLRILEGFGYRKEDLRYQKTRQVGLTSWLNIKKS
[5]
  DNA: 0.7 nM
[6]
  dNTP (μM each): 16 ± 2 μM each
[7]
  Specific Activity (U/mg) × 10^4 Primed M13: 2.0 ± .02 (U/mg) × 10^4

B3: JDF-3: Recombinant wild-type Thermococcus species JDF-3 Family B DNA polymerase (SEQ ID NO: 2) (protein)
chain: MILDVDYITENGKPVIRVFKKENGEFRIEYDREFEPYFYALLRDDSAIEEIKKITAERHGRVVKVKRAEKVKKKFLGRSVEVWVLYFTHPQDVPAIRDKIRKHPAVIDIYEYDIPFAKRYLIDKGLIPMEGEEELKLMSFDIETLYHEGEEFGTGPILMISYADESEARVITWKKIDLPYVEVVSTEKEMIKRFLRVVKEKDPDVLITYNGDNFDFAYLKKRCEKLGVSFTLGRDGSEPKIQRMGDRFAVEVKGRVHFDLYPVIRRTINLPTYTLEAVYEAVFGKPKEKVYAEEIATAWETGEGLERVARYSMEDARVTYELGREFFPMEAQLSRLIGQGLWDVSRSSTGNLVEWFLLRKAYERNELAPNKPDERELARRRGGYAGGYVKEPERGLWDNIVYLDFRSLYPSIIITHNVSPDTLNREGCRSYDVAPEVGHKFCKDFPGFIPSLLGNLLEERQKIKRKMKATLDPLEKNLLDYRQRAIKILANSYYGYYGYARARWYCRECAESVTAWGREYIEMVIRELEEKFGFKVLYADTDGLHATIPGADAETVKKKAMEFLNYINPKLPGLLELEYEGFYVRGFFVTKKKYAVIDEEGKITTRGLEIVRRDWSEIAKETQARVLEAILRHGDVEEAVRIVREVTEKLSKYEVPPEKLVIHEQITRELKDYKATGPHVAIAKRLAARGVKIRPGTVISYIVLKGSGRIGDRAIPFDEFDPTKHKYDADYYIENQVLPAVERILRAFGYRKEDLRYQKTRQVGLGAWLKPKGKKK
modifications: Thermococcus sp. JDF-3
[5]
  DNA: 2.0 nM
[8]
  Exo activity (U/mg): 915 U/mg
[6]
  dNTP (μM each): 16 ± 2 μM each
[7]
  Specific Activity (U/mg) × 10^4 Primed M13: 5.2 (U/mg) × 10^4
[9]
  Specific Activity (U/mg) × 10^4 Activated DNA: 1.2 ± .07 (U/mg) × 10^4
